Laboratory results: publication PMC4267655, “Brr2p carboxy-terminal Sec63 domain modulates Prp16 splicing RNA helicase” (Nucleic Acids Research, 2014)

Target: Brr2 H2-Sec63-2p R1899G, Gal4AD-prey fusion, P32639
Assay: Y2H interaction assay
Details: chain shown with the change; growth on -LWH medium with 3-AT; parent: 50.0

Sequence of Brr2 H2-Sec63-2p R1899G, Gal4AD-prey fusion, P32639 (P32639 whole entry R1899G, the tested form may be a part): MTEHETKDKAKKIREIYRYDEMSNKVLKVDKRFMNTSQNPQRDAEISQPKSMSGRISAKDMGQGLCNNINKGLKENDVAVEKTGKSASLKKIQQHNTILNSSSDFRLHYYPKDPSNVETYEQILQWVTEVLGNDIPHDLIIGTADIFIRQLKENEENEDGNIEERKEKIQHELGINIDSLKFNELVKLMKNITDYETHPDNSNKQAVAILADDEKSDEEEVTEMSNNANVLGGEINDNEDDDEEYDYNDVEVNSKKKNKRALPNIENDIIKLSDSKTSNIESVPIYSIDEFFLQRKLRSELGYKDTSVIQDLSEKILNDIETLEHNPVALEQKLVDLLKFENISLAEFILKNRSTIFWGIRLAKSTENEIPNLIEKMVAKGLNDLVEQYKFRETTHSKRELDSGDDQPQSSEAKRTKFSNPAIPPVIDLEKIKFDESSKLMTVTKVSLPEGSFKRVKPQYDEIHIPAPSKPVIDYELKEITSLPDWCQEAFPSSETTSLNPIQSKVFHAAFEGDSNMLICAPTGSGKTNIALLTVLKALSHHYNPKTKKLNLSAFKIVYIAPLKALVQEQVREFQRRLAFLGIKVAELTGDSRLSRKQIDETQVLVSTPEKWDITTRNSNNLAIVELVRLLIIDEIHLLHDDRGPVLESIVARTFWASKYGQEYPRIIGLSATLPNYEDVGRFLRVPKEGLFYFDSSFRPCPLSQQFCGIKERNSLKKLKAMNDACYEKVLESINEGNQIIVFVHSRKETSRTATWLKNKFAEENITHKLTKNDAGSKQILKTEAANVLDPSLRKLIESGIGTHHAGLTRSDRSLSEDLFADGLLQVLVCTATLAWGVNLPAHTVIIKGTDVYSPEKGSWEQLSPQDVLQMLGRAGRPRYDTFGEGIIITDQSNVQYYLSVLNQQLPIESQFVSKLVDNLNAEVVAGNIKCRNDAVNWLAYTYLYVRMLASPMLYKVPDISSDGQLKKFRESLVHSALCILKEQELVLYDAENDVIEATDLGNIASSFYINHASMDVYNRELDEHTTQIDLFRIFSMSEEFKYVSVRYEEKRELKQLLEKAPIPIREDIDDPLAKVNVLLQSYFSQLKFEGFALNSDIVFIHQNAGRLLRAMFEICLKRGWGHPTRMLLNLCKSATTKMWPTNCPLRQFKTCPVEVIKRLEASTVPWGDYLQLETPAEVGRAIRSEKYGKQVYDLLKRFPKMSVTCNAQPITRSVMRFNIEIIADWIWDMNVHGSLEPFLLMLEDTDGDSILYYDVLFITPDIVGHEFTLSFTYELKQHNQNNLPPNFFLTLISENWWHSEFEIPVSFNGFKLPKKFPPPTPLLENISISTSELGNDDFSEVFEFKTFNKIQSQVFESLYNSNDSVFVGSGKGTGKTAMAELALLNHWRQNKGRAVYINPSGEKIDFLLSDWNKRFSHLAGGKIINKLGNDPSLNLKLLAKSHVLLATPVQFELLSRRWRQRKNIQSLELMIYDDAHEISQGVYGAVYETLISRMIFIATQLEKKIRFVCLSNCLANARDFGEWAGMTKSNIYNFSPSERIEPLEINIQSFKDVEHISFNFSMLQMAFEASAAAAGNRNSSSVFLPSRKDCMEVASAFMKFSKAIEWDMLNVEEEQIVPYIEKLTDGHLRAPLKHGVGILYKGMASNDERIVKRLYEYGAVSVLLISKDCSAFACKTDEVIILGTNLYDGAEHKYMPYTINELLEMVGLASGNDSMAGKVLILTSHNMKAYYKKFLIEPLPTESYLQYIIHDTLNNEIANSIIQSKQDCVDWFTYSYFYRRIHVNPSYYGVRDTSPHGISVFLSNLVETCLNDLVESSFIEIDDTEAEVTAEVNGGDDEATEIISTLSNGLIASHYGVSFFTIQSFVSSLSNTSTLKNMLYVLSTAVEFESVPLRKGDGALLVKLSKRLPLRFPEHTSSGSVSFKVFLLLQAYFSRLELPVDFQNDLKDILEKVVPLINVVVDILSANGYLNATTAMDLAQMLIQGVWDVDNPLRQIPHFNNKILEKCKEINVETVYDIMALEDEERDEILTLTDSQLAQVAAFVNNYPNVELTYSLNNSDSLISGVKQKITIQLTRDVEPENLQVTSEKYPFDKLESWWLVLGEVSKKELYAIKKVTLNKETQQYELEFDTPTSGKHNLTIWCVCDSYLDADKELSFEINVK

B1: m21; m1 Prp16p:R456K; Prp16p:G691R; Brr2 H2-Sec63-2:R1899G (protein)
chain: MGHSGREERIKDIFKELTSKELTPGLLLTLQKLAQKPNTNLEQFIASCKALTKLSSNNPIIFNELLELLKNKSEEDSTGPKKIAPSINKRKKFKIQLDLDDNEDELDSPVQKKPAPTRTLFKRIDKLKAKQLRQYSPTVKDPSPNSEQQTQNGHAETKDYEPTRSEVVEEDREWYDNDDDYGNLVPEPLSELPEEAKLLPVIRNIDNDDALRNTVQLYPIPLKQRMEWIPPFLSKFALENKVPTSIIIGSISETSSQVSALSMVNPFRNPDSEFSANAKRGSKLVALRRINMEHIQQSRDNTTVLNTAMGEVLGLENNNKAKDKSNQKICDDTALFTPSKDDIKHTKEQLPVFRCRSQLLSLIRENQVVVIIGETGSGKTTQLAQYLYEEGYANDRGKSIVVTQPRRVAAISVAKRVAMEMQVPLGKEVGYSIRFEDVTDSECTKLKFVTDGILLKETLLDDTLDKYSCVIIDEAHERSLNTDILLGFFKILLARRRDLKLIITSATMNAKKFSAFFGNAPQFTIPGRTFPVQTIYTSNPVQDYVEAAVSQAVKIHLANDCSSGDILIFMTGQEDIETTFDTLQEKFLQVYSKKFGTANFEEINDIEILPIYSALPADLQFKIFQDLHGTKRKIIIATNIAETSLTIKGIRYVIDCGYSKLKVYNPKIGLDSLVITPISKANADQRSGRARRTAPGTAYRLYTEDTFKEDMYLQTIPEIQRTNLSNTLLLLKSLDVTDELSKFPFIDKPPLQTFLSSLYELWFIGAIDTSGQLTPLGLQMAKFPLQPSLSKILLIAVRNGCSDEMLTIVSMLSVPQVFYRPKERQKEADIARNKFFIAKSDHLTLLNVFEQWRANNFSSHWCNKHFVQYKSLVRARDIRDQLLTILKSQKIPVISSGKDWDIIKKCICSGFAHQAAKITGLRNYVHLKTGVSVQLHPTSALHGLGDLPPYVVYHELLMTSKEYICCVTSVDPFWLMEYGGLLYDIKRIKNDQEATTTGLFGEHYEHTLDKVEDDIDINIRRCKDMRDSVIQELKMTDNSNKEDKKQKTKKQNILNGKENSMKPFKRRKPFF
other: maximal [3AT] tolerated: 0 mM

B2: m21; m1 Prp16p:R686Q; Brr2 H2-Sec63-2:R1899G (protein)
chain: MGHSGREERIKDIFKELTSKELTPGLLLTLQKLAQKPNTNLEQFIASCKALTKLSSNNPIIFNELLELLKNKSEEDSTGPKKIAPSINKRKKFKIQLDLDDNEDELDSPVQKKPAPTRTLFKRIDKLKAKQLRQYSPTVKDPSPNSEQQTQNGHAETKDYEPTRSEVVEEDREWYDNDDDYGNLVPEPLSELPEEAKLLPVIRNIDNDDALRNTVQLYPIPLKQRMEWIPPFLSKFALENKVPTSIIIGSISETSSQVSALSMVNPFRNPDSEFSANAKRGSKLVALRRINMEHIQQSRDNTTVLNTAMGEVLGLENNNKAKDKSNQKICDDTALFTPSKDDIKHTKEQLPVFRCRSQLLSLIRENQVVVIIGETGSGKTTQLAQYLYEEGYANDRGKSIVVTQPRRVAAISVAKRVAMEMQVPLGKEVGYSIRFEDVTDSECTKLKFVTDGILLRETLLDDTLDKYSCVIIDEAHERSLNTDILLGFFKILLARRRDLKLIITSATMNAKKFSAFFGNAPQFTIPGRTFPVQTIYTSNPVQDYVEAAVSQAVKIHLANDCSSGDILIFMTGQEDIETTFDTLQEKFLQVYSKKFGTANFEEINDIEILPIYSALPADLQFKIFQDLHGTKRKIIIATNIAETSLTIKGIRYVIDCGYSKLKVYNPKIGLDSLVITPISKANADQQSGRAGRTAPGTAYRLYTEDTFKEDMYLQTIPEIQRTNLSNTLLLLKSLDVTDELSKFPFIDKPPLQTFLSSLYELWFIGAIDTSGQLTPLGLQMAKFPLQPSLSKILLIAVRNGCSDEMLTIVSMLSVPQVFYRPKERQKEADIARNKFFIAKSDHLTLLNVFEQWRANNFSSHWCNKHFVQYKSLVRARDIRDQLLTILKSQKIPVISSGKDWDIIKKCICSGFAHQAAKITGLRNYVHLKTGVSVQLHPTSALHGLGDLPPYVVYHELLMTSKEYICCVTSVDPFWLMEYGGLLYDIKRIKNDQEATTTGLFGEHYEHTLDKVEDDIDINIRRCKDMRDSVIQELKMTDNSNKEDKKQKTKKQNILNGKENSMKPFKRRKPFF
other: maximal [3AT] tolerated: 50 mM

B3: m21; m1 Prp16p:D473E; Brr2 H2-Sec63-2:R1899G (protein)
chain: MGHSGREERIKDIFKELTSKELTPGLLLTLQKLAQKPNTNLEQFIASCKALTKLSSNNPIIFNELLELLKNKSEEDSTGPKKIAPSINKRKKFKIQLDLDDNEDELDSPVQKKPAPTRTLFKRIDKLKAKQLRQYSPTVKDPSPNSEQQTQNGHAETKDYEPTRSEVVEEDREWYDNDDDYGNLVPEPLSELPEEAKLLPVIRNIDNDDALRNTVQLYPIPLKQRMEWIPPFLSKFALENKVPTSIIIGSISETSSQVSALSMVNPFRNPDSEFSANAKRGSKLVALRRINMEHIQQSRDNTTVLNTAMGEVLGLENNNKAKDKSNQKICDDTALFTPSKDDIKHTKEQLPVFRCRSQLLSLIRENQVVVIIGETGSGKTTQLAQYLYEEGYANDRGKSIVVTQPRRVAAISVAKRVAMEMQVPLGKEVGYSIRFEDVTDSECTKLKFVTDGILLRETLLDDTLDKYSCVIIEEAHERSLNTDILLGFFKILLARRRDLKLIITSATMNAKKFSAFFGNAPQFTIPGRTFPVQTIYTSNPVQDYVEAAVSQAVKIHLANDCSSGDILIFMTGQEDIETTFDTLQEKFLQVYSKKFGTANFEEINDIEILPIYSALPADLQFKIFQDLHGTKRKIIIATNIAETSLTIKGIRYVIDCGYSKLKVYNPKIGLDSLVITPISKANADQRSGRAGRTAPGTAYRLYTEDTFKEDMYLQTIPEIQRTNLSNTLLLLKSLDVTDELSKFPFIDKPPLQTFLSSLYELWFIGAIDTSGQLTPLGLQMAKFPLQPSLSKILLIAVRNGCSDEMLTIVSMLSVPQVFYRPKERQKEADIARNKFFIAKSDHLTLLNVFEQWRANNFSSHWCNKHFVQYKSLVRARDIRDQLLTILKSQKIPVISSGKDWDIIKKCICSGFAHQAAKITGLRNYVHLKTGVSVQLHPTSALHGLGDLPPYVVYHELLMTSKEYICCVTSVDPFWLMEYGGLLYDIKRIKNDQEATTTGLFGEHYEHTLDKVEDDIDINIRRCKDMRDSVIQELKMTDNSNKEDKKQKTKKQNILNGKENSMKPFKRRKPFF
other: maximal [3AT] tolerated: 10 mM

B4: m21; m1 Prp16p:R686I; Brr2 H2-Sec63-2:R1899G (protein)
chain: MGHSGREERIKDIFKELTSKELTPGLLLTLQKLAQKPNTNLEQFIASCKALTKLSSNNPIIFNELLELLKNKSEEDSTGPKKIAPSINKRKKFKIQLDLDDNEDELDSPVQKKPAPTRTLFKRIDKLKAKQLRQYSPTVKDPSPNSEQQTQNGHAETKDYEPTRSEVVEEDREWYDNDDDYGNLVPEPLSELPEEAKLLPVIRNIDNDDALRNTVQLYPIPLKQRMEWIPPFLSKFALENKVPTSIIIGSISETSSQVSALSMVNPFRNPDSEFSANAKRGSKLVALRRINMEHIQQSRDNTTVLNTAMGEVLGLENNNKAKDKSNQKICDDTALFTPSKDDIKHTKEQLPVFRCRSQLLSLIRENQVVVIIGETGSGKTTQLAQYLYEEGYANDRGKSIVVTQPRRVAAISVAKRVAMEMQVPLGKEVGYSIRFEDVTDSECTKLKFVTDGILLRETLLDDTLDKYSCVIIDEAHERSLNTDILLGFFKILLARRRDLKLIITSATMNAKKFSAFFGNAPQFTIPGRTFPVQTIYTSNPVQDYVEAAVSQAVKIHLANDCSSGDILIFMTGQEDIETTFDTLQEKFLQVYSKKFGTANFEEINDIEILPIYSALPADLQFKIFQDLHGTKRKIIIATNIAETSLTIKGIRYVIDCGYSKLKVYNPKIGLDSLVITPISKANADQISGRAGRTAPGTAYRLYTEDTFKEDMYLQTIPEIQRTNLSNTLLLLKSLDVTDELSKFPFIDKPPLQTFLSSLYELWFIGAIDTSGQLTPLGLQMAKFPLQPSLSKILLIAVRNGCSDEMLTIVSMLSVPQVFYRPKERQKEADIARNKFFIAKSDHLTLLNVFEQWRANNFSSHWCNKHFVQYKSLVRARDIRDQLLTILKSQKIPVISSGKDWDIIKKCICSGFAHQAAKITGLRNYVHLKTGVSVQLHPTSALHGLGDLPPYVVYHELLMTSKEYICCVTSVDPFWLMEYGGLLYDIKRIKNDQEATTTGLFGEHYEHTLDKVEDDIDINIRRCKDMRDSVIQELKMTDNSNKEDKKQKTKKQNILNGKENSMKPFKRRKPFF
other: maximal [3AT] tolerated: 75 mM

B5: m21; m1 Prp16p:Q685H; Brr2 H2-Sec63-2:R1899G (protein)
chain: MGHSGREERIKDIFKELTSKELTPGLLLTLQKLAQKPNTNLEQFIASCKALTKLSSNNPIIFNELLELLKNKSEEDSTGPKKIAPSINKRKKFKIQLDLDDNEDELDSPVQKKPAPTRTLFKRIDKLKAKQLRQYSPTVKDPSPNSEQQTQNGHAETKDYEPTRSEVVEEDREWYDNDDDYGNLVPEPLSELPEEAKLLPVIRNIDNDDALRNTVQLYPIPLKQRMEWIPPFLSKFALENKVPTSIIIGSISETSSQVSALSMVNPFRNPDSEFSANAKRGSKLVALRRINMEHIQQSRDNTTVLNTAMGEVLGLENNNKAKDKSNQKICDDTALFTPSKDDIKHTKEQLPVFRCRSQLLSLIRENQVVVIIGETGSGKTTQLAQYLYEEGYANDRGKSIVVTQPRRVAAISVAKRVAMEMQVPLGKEVGYSIRFEDVTDSECTKLKFVTDGILLRETLLDDTLDKYSCVIIDEAHERSLNTDILLGFFKILLARRRDLKLIITSATMNAKKFSAFFGNAPQFTIPGRTFPVQTIYTSNPVQDYVEAAVSQAVKIHLANDCSSGDILIFMTGQEDIETTFDTLQEKFLQVYSKKFGTANFEEINDIEILPIYSALPADLQFKIFQDLHGTKRKIIIATNIAETSLTIKGIRYVIDCGYSKLKVYNPKIGLDSLVITPISKANADHRSGRAGRTAPGTAYRLYTEDTFKEDMYLQTIPEIQRTNLSNTLLLLKSLDVTDELSKFPFIDKPPLQTFLSSLYELWFIGAIDTSGQLTPLGLQMAKFPLQPSLSKILLIAVRNGCSDEMLTIVSMLSVPQVFYRPKERQKEADIARNKFFIAKSDHLTLLNVFEQWRANNFSSHWCNKHFVQYKSLVRARDIRDQLLTILKSQKIPVISSGKDWDIIKKCICSGFAHQAAKITGLRNYVHLKTGVSVQLHPTSALHGLGDLPPYVVYHELLMTSKEYICCVTSVDPFWLMEYGGLLYDIKRIKNDQEATTTGLFGEHYEHTLDKVEDDIDINIRRCKDMRDSVIQELKMTDNSNKEDKKQKTKKQNILNGKENSMKPFKRRKPFF
other: maximal [3AT] tolerated: 100 mM
